Common to all, as to assay type: cell-based, mice
Assay [1] concerns hippocampal neurons. Nature of the assay: Morphometric analyses (total dendritic length, Sholl analysis, spine density) of cultured hippocampal neurons. How it is done:
Hippocampal neurons from newborn C57BL/6 mice were cultured as known in the art. Experiments were done after a culturing period of 10 to 14 days in vitro (DIV). DNA transfection was done on DIV8 using Lipofectamine 2000 (Invitrogen, San Diego, Calif.). For the studies on dendrite morphology, neurons were analyzed 4-5 days after transfection.
For 3D Sholl Analysis, total dendritic length and spine morphology were calculated using Object-Image freeware software with a specific set of macros (written by Dr. E. Ruthazer, McGill University, Quebec). Briefly, a z-Stack acquisition was imported, calibrated in Object-Image and manually traced. Total dendritic length was then computed. For Sholl analysis, the shell interval was set at 5 μm. All analyses were performed blind. In all in vitro experiments, for each condition, a minimum of 12 neurons from three independent preparations was analyzed. For the Golgi staining quantifications of 20 neurons for each condition from 4 different injected animals per viral construct were traced and analyzed.
Hippocampal neurons were fixed with 4% paraformaldehyde at room temperature for 20 min. For immunostaining, primary and secondary antibodies were applied in GDB buffer (30 mM phosphate buffer [pH7.4] containing 0.2% gelatin, 0.5% Triton X-100, and 0.9 M NaCl). For the morphometric analyses, fluorescence images were acquired using a confocal laser-scanning microscope TCS SP2 (Leica, Mannheim, Germany) equipped with an inverted fluorescence microscope DM IRE2 (Leica) and Leica confocal scan software. All images were obtained with sequential acquisition setting at a resolution of 1024×1024 pixels. Each image was a z series projection of images taken at 1 μm intervals.

In assay [2] the test system is ERK1/2. The assay can be described thus: Immunoblot analysis with phospho-specific antibodies, ERK1/2. Particulars: rVEGFD treatment for various lengths of time. How it is done: (§1) A: Immunoblot analysis using phosphor-specific antibodies of hippocampal neurons with or without rVEGFD treatment for the indicated times. Tubulin was used as loading control.
(§2) B: Quantification of the experiment shown in A. rVEGFD treatment causes a significant increase of CREB, ERK1/2 and p38 MAP kinase phosphorylation. All values are expressed as percentage of untreated controls (n=5).
(§3) Next, the signaling mechanisms through which VEGFD controls dendrite architecture were determined. Cell lysates from hippocampal neurons treated with rVEGFD for various lengths of time were subjected to immunoblot analysis using a large panel of antibodies that are specific for the phosphorylated (i.e. activated) forms of signaling molecules (FIG. 9). […] Therefore, it was determined whether p38 MAPK mediates the effects of VEGFD on dendrite geometry. […] Because SB203580 inhibits the alpha and beta isoforms of p38 MAPK, the role of p38 MAPK in VEGFD-mediated dendritic arborization by RNAi was further investigated. Two pAAVs, shp38α and shp38β, that contain expression cassettes for shRNAs specific for the alpha and the beta isoform, respectively, of p38 MAPK, were generated.

In assay [3] the test system is p38 MAP kinase. The assay can be described thus: Immunoblot analysis with phospho-specific antibodies, p38 MAP kinase. The following applies: rVEGFD treatment for various lengths of time. How it is done:
as §1, §2, §3

The test system of assay [4] is CREB. The assay can be described thus: Immunoblot analysis with phospho-specific antibodies, CREB. Particulars: rVEGFD treatment for various lengths of time. How it is done:
as §1, §2, §3

The test system of assay [5] is hippocampal cultures. Nature of the assay: MEA recordings of spontaneous network activity. Particulars: rAAV-shVEGFD infected cultures, 100 ng/ml rVEGFD added to media. How it is done: MEA recordings were done as known in the art. From DIV7 to DIV13, recordings of spontaneous network activity were acquired for 5 min once per day.
Assay [6] relates to VEGFD. Nature of the assay: qRT-PCR analysis of VEGFD expression in hippocampal neurons. Particulars: hippocampal neurons infected with rAAV. The protocol:
Total RNA was isolated at DIV10 to DIV13 from hippocampal primary neuron cultures or isolated brain tissues with Rneasy Mini Kit (Qiagen, Hilden, Germany) including an optional Dnase I treatment at room temperature for 15 min according to manufacturer's instructions (Qiagen). 1.2 μg of extracted RNA was reverse transcribed into first strand cDNA using High Capacity cDNA Reverse Transcription kit (Applied Biosystems, Foster City, Calif.).
Quantitative reverse transcriptase PCR (qRT-PCR) was done on an ABI7300 thermal cycler using Universal qRT-PCR master mix with TaqMan Gene Expression Assays for the indicated genes (Applied Biosystems). The following TaqMan Gene Expression Assays were used in this study: Gusb (Mm00446953_m1), cFos (Mm00487425_m1), VEGFD (Mm00438965_m1), VEGFC (Mm01202432_m1), VEGF (Mm01281449_m1), VEGFR3 (Mm01292618_m1), beta-actin (Mm00607939_s1), beta-2 microglobulin (Mm00437762_m1), CBP (Mm01342435_m1), p38 MAPK alpha (Mm00442497_m1), p38 MAPK beta (Mm00440955_m1). Expression of target genes was normalized against the expression of Gusb as endogenous control gene. Data were derived from at least 5 independent experiments.

B1: rVEGFD: recombinant mouse VEGFD (R&D Systems) (protein)
chain: FAATFYDTETLKVIDEEWQRTQCSPRETCVEVASELGKTTNTFFKPPCVNVFRCGGCCNEEGVMCMNTSTSYISKQLFEISVPLTSVPELVPVKIANHTGCKCLPTGPRHPYSIIRR
As for B1, the “dendrite length or complexity” value in assay [1] (neurons transfected with pAAV-shSCR and pAAV-emptymC, rVEGFD 100 ng/ml 3 days) was “did not affect dendrite length or complexity”. In addition, in assay [1] (neurons without nuclear calcium signaling blockade), the neuronal morphology entry is reported as “no detectable effect on neuronal morphology”. In assay [1] (pAAV-shVEGFD transfected neurons, rVEGFD 100 ng/ml 3 days or co-transfection), the “effect on reduction of dendrite length and complexity caused by shVEGFD” value is on record as “reversed”. Besides, the “restoration of spine density in CaMBP4 or CaMKIVK75E expressing neurons” value in assay [1] (rVEGFD 100 ng/ml 3 days or VEGFD-HA expression) is given as “failed to restore normal spine density”. Moreover, the “rescue of reduction in dendrite length and complexity caused by CaMBP4 or CaMKIVK75E” value in assay [1] (recombinant factors 100 ng/ml for 3 days, or VEGFD-HA expression) is “rescued the reduction in dendrite length and complexity”. The ERK1/2 phosphorylation entry in assay [2] is “significant but moderate”. The “activation of p38 MAPK” value in assay [3] is listed as “very robust”. Moreover, in assay [4], the CREB phosphorylation result is listed as “significant but moderate”. Further, the “rescue of decreased spike frequency” value in assay [5] is “partly rescued”.

B2: CaMKIVK75E: dominant negative mutant of CaMKIV (protein, UniProt P08414 1-469, looked up, variant K75E)
Calcium/calmodulin-dependent …: MLKVTVPSCPSSPCSSVTASTENLVPDYWIDGSNRDPLGDFFEVESELGRGATSIVYRCKQKGTQKPYALKVLKETVDKKIVRTEIGVLLRLSHPNIIKLKEIFETPTEISLVLELVTGGELFDRIVEKGYYSERDARDAVKQILEAVAYLHENGIVHRDLKPENLLYATPAPDAPLKIADFGLSKIVEHQVLMKTVCGTPGYCAPEILRGCAYGPEVDMWSVGIITYILLCGFEPFYDERGDQFMFRRILNCEYYFISPWWDEVSLNAKDLVKKLIVLDPKKRLTTFQALQHPWVTGKAANFVHMDTAQKKLQEFNARRKLKAAVKAVVASSRLGSASSSHTSIQENHKASSDPPSTQDAKDSTDLLGKKMQEEDQEEDQVEAEASADEMRKLQSEEVEKDAGVKEEETSSMVPQDPEDELETDDPEMKRDSEEKLKSVEEEMDPMTEEEAPDAGLGVPQQDAIQPEY
As to B2, the “VEGFD mRNA levels” value in assay [6] is “significantly lower”.

For the origin of these results see US20120308554A1, “VEGF-D/VEGFR2/3-MEDIATED REGULATION OF DENDRITES” (UNIVERSITAT HEIDELBERG, priority 2011, published 2012).
